Reference: patent publication US8492329B2, “Bioactive peptides and methods of using same” (Compugen Ltd., priority 2007, dated 2013)
“Also recorded” adds a separate entry of the source. No end group written: not given here.

Experiments:
Type in all cases: cell-based
LGR4 [1] = biological target: T1, LGR4 (Homo sapiens, UniProt Q9BXB1); assay: cAMP accumulation in CHO-K1 cells transiently transfected with LGR4; conditions: 1 uM, pre-treatment with Forskolin, FIG. 3C
T1 construct: expressed in transfected cells; host or cells: CHO-K1 (transient)
Method: [The procedure below names another target; the source says it served here with some conditions changed.] (§1) LGR7 (RXFP1) or LGR8 (RXFP2) were transiently transfected into CHO-K1 cells as follows: Cells (12 million) were plated into T75 flasks on the day preceding transfection. Cells were transfected with a GPCR DNA and Gα16 using a lipid technique according to the manufacturer's recommendation. Cells were transfected for 5 hours, then re-plated into 96-well dishes (60,000 cells per well) and grown overnight. Transfected cells were plated into 24 wells of a 96-well plate. Cells were pre-treated with 0.5 mM IBMX (stimulation buffer) for 10 min at 37° C., then stimulated with either a positive control (Relaxin 2) or a candidate peptide (for Gs functional examination), followed by stimulation or a preincubation with 10 μM forskolin (for Gi functional examination). Following a 20 minutes stimulation by incubation with 1 μM of either positive control or the tested peptides, either with or without forskolin, intracellular cAMP was assayed using the Hit Hunter cAMP kit (DiscoveRx Corporation) according to the manufacturer's recommended protocol. Data was converted to nmol of cAMP by running a standard cAMP curve.

LGR5 = biological target: T2, LGR5 (Homo sapiens, UniProt O75473); assay: cAMP accumulation in CHO-K1 cells transiently transfected with LGR5; conditions: 1 uM, pre-treatment with Forskolin, FIG. 3B
T2 construct: expressed in transfected cells; host or cells: CHO-K1 (transient)
T2 sequence (O75473 22-907): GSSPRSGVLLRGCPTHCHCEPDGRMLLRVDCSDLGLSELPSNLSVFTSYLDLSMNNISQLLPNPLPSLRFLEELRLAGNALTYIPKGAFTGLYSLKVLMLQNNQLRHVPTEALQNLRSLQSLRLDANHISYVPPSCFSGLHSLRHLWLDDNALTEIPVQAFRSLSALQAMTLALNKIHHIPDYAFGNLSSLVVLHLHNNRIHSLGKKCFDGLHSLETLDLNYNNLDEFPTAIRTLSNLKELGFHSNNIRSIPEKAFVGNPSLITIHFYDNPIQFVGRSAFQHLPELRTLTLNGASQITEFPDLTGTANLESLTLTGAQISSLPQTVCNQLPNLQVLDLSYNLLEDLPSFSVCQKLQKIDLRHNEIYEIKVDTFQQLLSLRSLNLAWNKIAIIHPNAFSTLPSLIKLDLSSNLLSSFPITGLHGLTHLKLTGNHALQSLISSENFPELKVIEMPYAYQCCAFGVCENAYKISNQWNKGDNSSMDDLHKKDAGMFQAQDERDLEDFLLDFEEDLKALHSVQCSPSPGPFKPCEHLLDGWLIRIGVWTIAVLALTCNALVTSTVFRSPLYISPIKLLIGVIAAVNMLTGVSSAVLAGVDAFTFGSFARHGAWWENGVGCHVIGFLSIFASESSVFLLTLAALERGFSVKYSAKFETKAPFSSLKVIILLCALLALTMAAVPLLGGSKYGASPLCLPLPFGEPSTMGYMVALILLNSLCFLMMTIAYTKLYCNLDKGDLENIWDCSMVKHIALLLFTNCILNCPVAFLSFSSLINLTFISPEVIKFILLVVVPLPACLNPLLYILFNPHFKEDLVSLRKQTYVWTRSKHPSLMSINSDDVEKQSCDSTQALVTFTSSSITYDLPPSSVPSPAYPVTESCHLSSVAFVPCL
Method: [The procedure below names another target; the source says it served here with some conditions changed.] as §1

LGR4 [2] = biological target: T1, LGR4; assay: ACEA RT-CES cell impedance, LGR4 transfected CHO-K1 cells; conditions: P74C13V 10 uM, H2 Relaxin 1 uM, FIG. 15
Source text: ACEA RT-CES screen is a noninvasive and label-free assay for GPCRs that can be used with both engineered and nonengineered cell lines. The assay is based on using cell-electrode impedance to measure minute changes in cellular morphology as a result of ligand-dependent GPCR activation and is described in Naichen Yu, et al., Anal. Chem., 78 (1), 35-43, 2006. 10.1021/ac051695v S0003-2700(05)01695-1. The Rho family of small GTPases, which include Rho, Rac, and CDC42, are well-characterized effectors of oncogenes, growth factor and adhesion-mediated signaling pathways and are not classically thought of as being key effectors for GPCRs. […] Since GPCRs couple to the actin cytoskeletal network and induce very defined morphological changes, it is possible to harness this information as a functional and biologically relevant readout for GPCRs.
ACEA biosciences; has designed electronic cell sensor arrays embedded in the bottom of the well of microtiter plates that are capable of measuring minute changes in cell morphology. […] The main advantages offered by using cell-substrate impedance and cell morphology as a readout are that both exogenously expressed and endogenous receptors can be assayed without the need for engineering the cell with promiscuous G proteins and reporters or labeling the cells with dyes. […]

effect on cell impedance (normalized cell index) (LGR4 [2])	Substance	Gi effect (decrease in cAMP accumulation) (LGR4 [1])	Gi effect (decrease in cAMP accumulation) (LGR5)
–	GQKGQVGPPGAAVRRAYAAFSV [Peptide P59C13V]	slight yet statistically significant Gi effect; also recorded: slight Gi activation	significant Gi effect; also recorded: slight Gi activation
moderate effect	GQKGQVGPPGAAVRRAYAAFSVGRRAYAAFSV-OH [Peptide P74C13V]	slight yet statistically significant Gi effect; also recorded: slight Gi activation	significant Gi effect; also recorded: slight Gi activation
much stronger effect	H2 Relaxin: H2 Relaxin (ACS), positive control, known ligand of LGR7 (RXFP1) [reference compound]	–	–
